Earlier results as cited in publication PMC6430685.

Biological target: BAX (Homo sapiens) (UniProt Q07812)
Sequence (Q07812 whole entry): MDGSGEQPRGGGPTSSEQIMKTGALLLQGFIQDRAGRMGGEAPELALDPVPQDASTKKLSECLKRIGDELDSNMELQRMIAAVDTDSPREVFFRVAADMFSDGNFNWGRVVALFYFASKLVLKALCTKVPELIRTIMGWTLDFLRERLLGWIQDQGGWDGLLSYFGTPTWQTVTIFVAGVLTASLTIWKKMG

vMIA, sequence (P16778 23-487): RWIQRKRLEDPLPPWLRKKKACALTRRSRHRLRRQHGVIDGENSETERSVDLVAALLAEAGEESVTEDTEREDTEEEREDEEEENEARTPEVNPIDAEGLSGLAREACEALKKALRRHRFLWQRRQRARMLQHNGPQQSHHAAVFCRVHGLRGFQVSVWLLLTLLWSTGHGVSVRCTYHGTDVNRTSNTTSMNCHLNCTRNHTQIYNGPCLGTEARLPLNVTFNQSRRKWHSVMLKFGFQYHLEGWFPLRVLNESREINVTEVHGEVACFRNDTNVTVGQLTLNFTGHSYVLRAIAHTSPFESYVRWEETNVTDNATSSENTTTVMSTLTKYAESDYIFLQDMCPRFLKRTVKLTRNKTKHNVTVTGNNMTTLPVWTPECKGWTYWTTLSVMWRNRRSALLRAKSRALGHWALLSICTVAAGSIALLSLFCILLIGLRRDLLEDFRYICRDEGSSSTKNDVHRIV

For vMIA (from UniProt P16778), the Kd is given as 140 nM.
